From patent publication US20180339041A1 (Kyowa Kirin, published 2018)
Where “and” joins values, the source holds several entries; their conditions need not be identical. Equal values may be shown once.

Columns and labels:
[1] = biological target: T1, C-terminally FLAG-tagged human Gas6 recombinant protein (hGas6-F) (human, UniProt Q14393 31-678, gamma-carboxylated glutamic acid residues in the Gla domain (producer cells co-express rat VKOR and human GGCX); positions not given); assay: SPR Biacore T100, captured antibody, Gas6 analyte, first test
T1 construct: also called human Gas6-F; human Gas6 protein
T1 sequence: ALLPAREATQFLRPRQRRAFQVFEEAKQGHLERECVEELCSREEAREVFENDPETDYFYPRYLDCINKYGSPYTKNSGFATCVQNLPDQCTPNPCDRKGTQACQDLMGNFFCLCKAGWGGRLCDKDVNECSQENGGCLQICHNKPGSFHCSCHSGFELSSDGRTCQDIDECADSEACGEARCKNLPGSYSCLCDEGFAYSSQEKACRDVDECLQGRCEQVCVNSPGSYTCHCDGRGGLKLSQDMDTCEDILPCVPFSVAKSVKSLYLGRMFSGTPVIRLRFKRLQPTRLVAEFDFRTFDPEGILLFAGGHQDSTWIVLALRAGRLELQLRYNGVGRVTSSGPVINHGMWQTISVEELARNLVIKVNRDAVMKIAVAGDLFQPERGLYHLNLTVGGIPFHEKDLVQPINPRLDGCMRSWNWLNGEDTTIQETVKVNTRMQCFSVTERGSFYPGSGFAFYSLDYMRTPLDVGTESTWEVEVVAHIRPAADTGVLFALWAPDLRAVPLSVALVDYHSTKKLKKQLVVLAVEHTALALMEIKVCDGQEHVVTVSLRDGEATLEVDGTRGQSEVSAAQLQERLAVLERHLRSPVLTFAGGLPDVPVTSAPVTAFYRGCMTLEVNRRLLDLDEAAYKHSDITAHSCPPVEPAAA

[2] = biological target: T1, C-terminally FLAG-tagged human Gas6 …; assay: as above; remark: listed apart in the source
Procedure: The measurement instrument used was Biacore® T100 (manufactured by GE Healthcare Japan Corp.).
(§1) An anti-human IgG antibody was immobilized on a CM5 sensor chip (manufactured by GE Healthcare Japan Corp.) using Human Antibody Capture Kit (manufactured by GE Healthcare Japan Corp.) according to the attached manual. Each test antibody adjusted to 1 μg/mL was added for 10 seconds at a flow rate of 10 μL/min to flow cells. […] The measurement was performed by the […] method. The obtained sensorgram was analyzed using Bia Evaluation Software (manufactured by GE Healthcare Japan Corp.), and the kinetic constant of each antibody was calculated.

[3] = biological target: T1, C-terminally FLAG-tagged human Gas6 …; assay: competitive ELISA, inhibition of hGas6-F binding to immobilised hAxl-hFc
[4] = biological target: T1, C-terminally FLAG-tagged human Gas6 …; assay: SPR Biacore T100, captured antibody, Gas6 analyte, retest
Procedure: as §1
In this retest, unlike the test mentioned above, the number of antibodies to be measured and variations in the concentration of the analyte were decreased, and the assay was conducted for a short time (within several hours), instead of sufficiently leaving standing the analyte added to the vial. […] This minimizes the adsorption of the analyte to the vial and permits more accurate calculation of ka and KD values than that in the test mentioned above.

[5] = biological target: T1, C-terminally FLAG-tagged human Gas6 …; assay: ELISA, hGas6-F captured by anti-FLAG, anti-human IgG-HRP
Procedure: First, 2 μg/mL anti-FLAG antibody [Monoclonal ANTI-FLAG M2 antibody produced in mouse (manufactured by Sigma-Aldrich Co. LLC) diluted with PBS (manufactured by Nacalai Tesque, Inc.)] was dispensed at 50 μL/well to a 96-well plate for ELISA (manufactured by Nalge Nunc International), and the plate was left standing overnight at 4° C. for adsorption. After removal of the immobilization solution, 1% BSA-PBS (manufactured by Nacalai Tesque, Inc.) was added thereto at 300 μL/well, and the plate was left standing at room temperature for 1 hour for blocking and washed five times with Tween 20-PBS (manufactured by Wako Pure Chemical Industries Ltd.).
In order to reduce the backgrounds of measurement values, the diluted secondary antibody solution was mixed with 50 μg/mL of an anti-DNP mouse IgG1 antibody and incubated at room temperature for 1 hour for use.

B1: hzKM5320 LV0HV0 antibody (antibody, V domains shown)
VH: QVQLVQSGSELKKPGASVKVSCKASGYTFTNYGMNWVRQAPGQGLEWMGWINTETGEPTYSDDFKGRFVFSLDTSVSTAYLQISSLKAEDTAVYYCAREDGYYGTLDYWGQGTTVTVSS
VL: DVVMTQSPDSLAVSLGERVTINCKASQSVSNDVAWYQQKPGQSPKLLIYYASNRYTGVPDRFSGSGSGTDFTLTISSLQAEDVAVYYCQQDYSSPWTFGQGTKLEIK
notes: Humanized; variant human IgG4 constant region (EU S228P, L235E, R409K), human kappa; also called A-02
Kd [1]: < 13.8 nM | koff [1]: 0.000924 s⁻¹ | kon [1]: > 66800 M⁻¹ s⁻¹ | fold increase of KD against the KM5320 chimeric antibody [2]: ≥ 10 fold | fold increase of kd against the KM5320 chimeric antibody [2]: ~6 fold

B2: KM5321 chimeric antibody (antibody, V domains shown)
VH: QIQLVQSGPELKKPGETVKISCRASGYTFTNYGMNWVKQAPGKGLKWMGWINTNTGEPTYTEEFKGRFAFSLETSATTAYLQINDLKNEDTATYFCARDEGWFVYWGQGTLITVSA
VL: ETTVTQSPASLSVATGEKVTIRCITSTDIDDDMNWYQQKPGEPPKLLISEGNTLRPGVPSRFSSSGYGTDFVFTIENTLSEDVADYYCLQTDSVPLTFGAGTKLELK
notes: also called KM5321 chimera; B-01
Kd [1]: < 1.16 nM | koff [1]: 0.000141 s⁻¹ and 0.000137 s⁻¹ | kon [1]: > 121000 M⁻¹ s⁻¹ | IC50 [3]: 12.3 ng/mL | Kd [4]: 0.202 nM | koff [4]: 7.66e-05 s⁻¹ | kon [4]: 380000 M⁻¹ s⁻¹ | EC50 [5]: 6.78 ng/mL

B3: hzKM5321 LV0HV0 antibody (antibody, V domains shown)
VH: QVHLVQSGSELKKPGASVKISCKASGYTFTNYGMNWVRQAPGQGLEWMGWINTNTGEPTYTEEFKGRFVFSLDTSVTTSYLQISTLKAEDTAVYFCARDEGWFVYWGQGTLVTVSS
VL: ETTLTQSPSSLSASVGDRVTITCITSTDIDDDMNWYQQKPGKAPKLLISEGNTLRPGVPSRFSGSGSGTDFTLTISSLQPEDFATYYCLQTDSVPLTFGQGTKVEIK
notes: Humanized; variant human IgG4 constant region (EU S228P, L235E, R409K), human kappa; also called B-02; LV0HV0
Kd [1]: < 3.57 nM | koff [1]: 0.000468 s⁻¹ | kon [1]: > 131000 M⁻¹ s⁻¹ | fold increase of KD against the KM5321 chimeric antibody [2]: ~3 fold | fold increase of kd against the KM5321 chimeric antibody [2]: ~3 fold

B4: hzKM5321 LV6HV2b antibody (antibody, V domains shown)
VH: QVHLVQSGPELKKPGASVKISCKASGYTFTNYGMNWVRQAPGQGLEWMGWINTNTGEPTYTEEFKGRFVFSLDTSVTTSYLQISTLKAEDTATYFCARDEGWFVYWGQGTLVTVSS
VL: ETTLTQSPSSLSVSTGDRVTITCITSTDIDDDMNWYQQKPGKPPKLLISEGNTLRPGVPSRFSSSGSGTDFTLTISSTQPEDFADYYCLQTDSVPLTFGQGTKVEIK
notes: Humanized; variant human IgG4 constant region (EU S228P, L235E, R409K), human kappa; also called B-24; LV6HV2b
Kd [1]: < 2.33 nM | koff [1]: 0.000239 s⁻¹ | kon [1]: > 103000 M⁻¹ s⁻¹ | IC50 [3]: 12.7 ng/mL | Kd [4]: 0.484 nM | koff [4]: 0.000154 s⁻¹ | kon [4]: 319000 M⁻¹ s⁻¹ | EC50 [5]: 5.95 ng/mL

B5: hzKM5321 LV7bHV0 antibody (antibody, V domains shown)
VH: QVHLVQSGSELKKPGASVKISCKASGYTFTNYGMNWVRQAPGQGLEWMGWINTNTGEPTYTEEFKGRFVFSLDTSVTTSYLQISTLKAEDTAVYFCARDEGWFVYWGQGTLVTVSS
VL: ETTVTQSPSSLSVSVGDRVTITCITSTDIDDDMNWYQQKPGKAPKLLISEGNTLRPGVPSRFSSSGSGTDFTFTISSTQPEDFADYYCLQTDSVPLTFGQGTKLEIK
notes: Humanized; variant human IgG4 constant region (EU S228P, L235E, R409K), human kappa; also called B-10; LV7bHV0
Kd [1]: < 1.88 nM | koff [1]: 0.000242 s⁻¹ | kon [1]: > 129000 M⁻¹ s⁻¹ | IC50 [3]: 11.8 ng/mL | Kd [4]: 0.403 nM | koff [4]: 0.000142 s⁻¹ | kon [4]: 353000 M⁻¹ s⁻¹ | EC50 [5]: 6.69 ng/mL
